Measurements from US20180334496A1.

Biological target: Recombinant His-tagged FcγRIIb (UniProt P31994)
Assay: ELISA, antibody coated at 2 uM, His-tagged FcγRIIb titrated 1:3 from 2 uM, HRP anti-His; the concentration is that of the receptor

Chain of Recombinant His-tagged FcγRIIb (P31994 46-217 limits assumed): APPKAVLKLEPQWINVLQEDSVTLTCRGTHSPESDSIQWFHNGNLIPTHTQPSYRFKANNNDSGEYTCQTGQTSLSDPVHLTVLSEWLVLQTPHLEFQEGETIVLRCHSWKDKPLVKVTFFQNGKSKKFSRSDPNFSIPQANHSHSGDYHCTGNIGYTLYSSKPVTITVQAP

Avastin (antibody)
EC50 (read off the curve): 70 nM
